The target in one data set is SerRS delta T413-V420 (Homo sapiens, UniProt P49591 1-514, del413-420). Kind of data set: EMSA; binding abolished; EMSA: 20 mM Tris-HCl pH 8.0, 60 mM KCl, 5 mM MgCl2, 0.1 mg/ml BSA, 10 ng/ul poly(dG-dC), 1 mM DTT, 30 min, room temperature; SPR: 10 mM HEPES pH 7.4, 150 mM NaCl, 0.005% P-20; footprint: 20 mM HEPES pH 7.9, 120 mM KCl, 8 mM MgCl2, 0.2 mM EDTA, 0.5 mM DTT, 0.2 mg/ml BSA, 10 ug/ml poly(dG-dC), 5% glycerol, room temperature. Particulars: protein: recombinant; chain copies: 2; label: 5' 32P. (In general: In EMSA bound probe runs differently from free probe, usually more slowly.)
Chain of SerRS delta T413-V420 (P49591 other isoform, or with tags, fused parts or gaps del413-420 | mutant): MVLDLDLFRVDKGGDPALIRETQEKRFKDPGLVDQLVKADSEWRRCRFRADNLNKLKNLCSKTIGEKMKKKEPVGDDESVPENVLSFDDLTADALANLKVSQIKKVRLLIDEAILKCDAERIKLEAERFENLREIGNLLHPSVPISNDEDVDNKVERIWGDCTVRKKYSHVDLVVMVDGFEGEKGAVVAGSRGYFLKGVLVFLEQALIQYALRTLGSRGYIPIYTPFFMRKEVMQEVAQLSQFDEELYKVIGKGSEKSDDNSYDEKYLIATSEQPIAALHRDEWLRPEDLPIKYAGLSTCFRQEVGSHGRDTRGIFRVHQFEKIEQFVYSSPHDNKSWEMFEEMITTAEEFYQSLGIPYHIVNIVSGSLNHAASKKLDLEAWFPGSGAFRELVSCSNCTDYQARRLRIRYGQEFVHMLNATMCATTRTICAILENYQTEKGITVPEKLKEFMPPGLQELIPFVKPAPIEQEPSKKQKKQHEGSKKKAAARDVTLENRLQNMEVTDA

A further data set deals with SerRS delta V2-G14 (Homo sapiens, UniProt P49591 1-514, del2-14). The description is as above. Particulars: protein: recombinant; chain copies: 2; label: 5' 32P.
Chain of SerRS delta V2-G14 (P49591 other isoform, or with tags, fused parts or gaps del2-14 | mutant): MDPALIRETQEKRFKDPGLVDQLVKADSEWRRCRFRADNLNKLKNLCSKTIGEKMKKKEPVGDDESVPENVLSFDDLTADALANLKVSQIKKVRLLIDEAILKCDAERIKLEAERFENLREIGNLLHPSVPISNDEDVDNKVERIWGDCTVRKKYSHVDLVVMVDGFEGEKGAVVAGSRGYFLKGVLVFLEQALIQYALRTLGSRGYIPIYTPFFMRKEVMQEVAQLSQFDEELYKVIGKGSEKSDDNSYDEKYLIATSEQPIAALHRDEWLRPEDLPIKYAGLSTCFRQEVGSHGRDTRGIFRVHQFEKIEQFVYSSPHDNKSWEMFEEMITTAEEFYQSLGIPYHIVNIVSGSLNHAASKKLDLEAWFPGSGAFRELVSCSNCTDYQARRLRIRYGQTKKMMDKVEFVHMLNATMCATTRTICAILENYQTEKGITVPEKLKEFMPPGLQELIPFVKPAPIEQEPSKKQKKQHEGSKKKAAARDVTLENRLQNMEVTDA

This note sets out measurements from PMC4057782, “tRNA synthetase counteracts c-Myc to develop functional vasculature”.

B1: VEGFA promoter 27-bp (-62 to -36) (dsDNA)
DNA 1: GGCGGGGCGGAGCCATGCGCCCCCCCC
DNA 2: GGGGGGGGCGCATGGCTCCGCCCCGCC
Turning to B1, the binding result with SerRS delta T413-V420 and in the data set with SerRS delta V2-G14 was “no binding” in each case.
